The source of these data is the supplement of paper PMC9170038.

The test system of this data set is K4 kissing-loop RNA reporter. In words: apparent KD of K4 kissing-loop reporter; higher = weaker reporter binding. The settings on record: Eterna round: R107. As to the method:
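RNA-MaP round R107: designed RNA switches with theophylline, tryptophan, arginine or FMN aptamers are transcribed on-chip within common flanks. They are titrated with a labelled K4 kissing-loop RNA reporter in RNA-MaP buffer (100 mM Tris pH 7.5, 80 mM KCl, 4 mM MgCl2), without ligand or with the indicated ligand. Median apparent KD per design.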

[1] abbreviates: input ligand: theophylline 20 uM.
[2] abbreviates: input ligand: tryptophan 2.4 mM.
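Note: bound reporter read as fluorescence of individual clusters on recovered sequencing chips by microscopy, with normalized cluster intensities fitted with a binding model.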

Take “CACAGAUCCUAAGGAUAUGGAGUGAUGUUCGCAAGUUCUUGGUGUGCAUUCAUCUGUCCUAUCAACCCAGAAGGUAGGAAGUCAC [theeternabot_exclusion_KL_FMN_B_1]”: the “apparent KD of K4 kissing-loop reporter” value amounted to 607 nM (input ligand: FMN 200 uM); 516 nM (input ligand: arginine 13.2 mM); 550 nM (input ligand: none); 993 nM under setting [1]; 604 nM under setting [2].

As to “UGUGUUUACCUGACUCAGUGAUGUUGAGAAGGAGCGUUCGAAAGAACAGGUAGGUCGCUCAACCUAAAUUCAGGUGAGCACUAAA”, the “apparent KD of K4 kissing-loop reporter” value (input ligand: FMN 200 uM) stood at 264 nM; the “apparent KD of K4 kissing-loop reporter” value (input ligand: arginine 13.2 mM) was found to be 223 nM; the “apparent KD of K4 kissing-loop reporter” value (input ligand: none) is 376 nM; the “apparent KD of K4 kissing-loop reporter” value under setting [1] was determined as 466 nM; the “apparent KD of K4 kissing-loop reporter” value under setting [2] was 322 nM.

With “AGAGUACGAAAGUACUCCUCUACACACUGCCGAGGACCGGUACGGCCGCCACUCGAGUUGAGUGAUGUUCGACAGUGUGUAGAGA [Omei KL Tryp A SS C v2]”, the “apparent KD of K4 kissing-loop reporter” value was determined as 114 nM (input ligand: FMN 200 uM); 56.2 nM (input ligand: arginine 13.2 mM); 79 nM (input ligand: none); 132 nM under setting [1]; 128 nM under setting [2].

For the sequence “GUACGCUCUCGAGUGAUGUUCGGUAAUAGAGAGGAUAUCGCUUUUGCGAGAAGGCUCUGAAUGAGGAAACUCGUUCUGAGUGUAC [FMN A 19]”, the “apparent KD of K4 kissing-loop reporter” value runs as follows: (input ligand: FMN 200 uM) 436 nM; (input ligand: arginine 13.2 mM) 362 nM; (input ligand: none) 389 nM; under setting [1], 358 nM; under setting [2], 419 nM.

For the sequence “UCGCGUAAUGGAAGGAGCGGUGCCAGUGAUGUUGGAUACUGCGUGUAUUAGGUCGGAGCGCACCAGGUAGGUCGCCAUUUGGUGG [Tigedies]”, the “apparent KD of K4 kissing-loop reporter” value (input ligand: FMN 200 uM) is 328 nM; the “apparent KD of K4 kissing-loop reporter” value (input ligand: arginine 13.2 mM) came to 276 nM; the “apparent KD of K4 kissing-loop reporter” value (input ligand: none) was 236 nM; the “apparent KD of K4 kissing-loop reporter” value under setting [1] is 271 nM; the “apparent KD of K4 kissing-loop reporter” value under setting [2] was 369 nM.

Consider “CAAACGUGCGGUAGGUUCAAGCGCUGGGAAGGAGCGCAGAUGACUGCAGGUAGGUCGCCCAGUGAUGUUGGGCUUUCCACCUACG [Dilausma]”, for which the “apparent KD of K4 kissing-loop reporter” value is, setting by setting: (input ligand: FMN 200 uM) 138 nM; (input ligand: arginine 13.2 mM) 123 nM; (input ligand: none) 119 nM; under setting [1], 138 nM; under setting [2], 99.9 nM.

In the case of “UGACUACAAAAGGAAUAAUCCUAGUGAUGUUAGGAUAUGCUGAUAAGCAGAAGGAACGGAGAUCGAAGGAUCUCAUAUGUAGUCU [whbob_Ex_FMNA__2th193]”, the “apparent KD of K4 kissing-loop reporter” value by setting is: (input ligand: FMN 200 uM) 170 nM; (input ligand: arginine 13.2 mM) 92.1 nM; (input ligand: none) 86.9 nM; under setting [1], 117 nM; under setting [2], 89 nM.

As for “UGUGAUGUGUAGUGUGAUGUUUUGAAGGAUACCAGAGUGUUGUUAUUCCCUUGGCAGCUUGAGUGAUGUUUGAUGUUGUUGUUGU [aawemullin]”, the “apparent KD of K4 kissing-loop reporter” value reads like this: (input ligand: FMN 200 uM) 324 nM; (input ligand: arginine 13.2 mM) 179 nM; (input ligand: none) 260 nM; under setting [1], 229 nM; under setting [2], 224 nM.

For the sequence “AGACUACUGACAGGAUAUGGCAUCCUGGUCGUAUACCGAAAGGUAUACGAUUUUCUUCUAGUGAUGUUAGAAGGGUCGGUAGUCA [Omei KL FMN B Exc B v15]”, the “apparent KD of K4 kissing-loop reporter” value (input ligand: FMN 200 uM) amounted to 128 nM; the “apparent KD of K4 kissing-loop reporter” value (input ligand: arginine 13.2 mM) came to 86.3 nM; the “apparent KD of K4 kissing-loop reporter” value (input ligand: none) came out at 97.3 nM; the “apparent KD of K4 kissing-loop reporter” value under setting [1] turned out to be 89.2 nM; the “apparent KD of K4 kissing-loop reporter” value under setting [2] was 92.7 nM.

Take “AGUGAGUGAUGUUCACUGUACGUGUCUGAAGGAGCGACAUCGAUGUCAGGUAGGUCGCAGACAUGUCAUCUAUGGUGCGUGACCA [Arg A SS t10]”: the “apparent KD of K4 kissing-loop reporter” value reads like this: (input ligand: FMN 200 uM) 124 nM; (input ligand: arginine 13.2 mM) 116 nM; (input ligand: none) 129 nM; under setting [1], 163 nM; under setting [2], 118 nM.

Take “AAACGUUGUUGCGAUACCAGCUGAUCGGAAACGAUCAUGCUGGAGUGAUGUUCCAGGAAAAGCCCUUGGCAGCGCAACGACGAAA [MAT - Same State Theophlline B - Mod of Eli - D30]”: the “apparent KD of K4 kissing-loop reporter” value runs as follows: (input ligand: FMN 200 uM) 276 nM; (input ligand: arginine 13.2 mM) 134 nM; (input ligand: none) 228 nM; under setting [1], 296 nM; under setting [2], 179 nM.

“GGAGGAGAAUAUGAUACCAGCAGAGAGAGAGAGGAAGUAUAGUGAUGUUAUAUGUGAGAAUGCCCUUGGCAGCAUAACAAGAAGG [whbob_SS_Theo_B_sa88]”: the “apparent KD of K4 kissing-loop reporter” value was 121 nM (input ligand: FMN 200 uM); 225 nM (input ligand: arginine 13.2 mM); 194 nM (input ligand: none); 116 nM under setting [1]; 122 nM under setting [2].

Take “UUUAUAUAGUCGGCCGCCACUGGAUUAAUAUUUGUAUAAUCUAGAUCAAAGUGAUGUUUUGAGUCCAGGACCGGGACAUUUGUUA [JR_ExcTryptoB_Sub006]”: the “apparent KD of K4 kissing-loop reporter” value is, setting by setting: (input ligand: FMN 200 uM) 539 nM; (input ligand: arginine 13.2 mM) 391 nM; (input ligand: none) 486 nM; under setting [1], 525 nM; under setting [2], 427 nM.

Turning to “GUCCCAGUGAUGUUGGUAGGCGAGCGGGAUACCAGCGAAGACUCACGCCCUUGGCAGCCCACAUAUCCCGCGUAGGGAUUAGCUC [Same State - Theophylline A (Freestyle 21)]”, the “apparent KD of K4 kissing-loop reporter” value by setting is: (input ligand: FMN 200 uM) 364 nM; (input ligand: arginine 13.2 mM) 315 nM; (input ligand: none) 431 nM; under setting [1], 415 nM; under setting [2], 347 nM.

Consider “AGACUACUGACAGGAUAUAACAUCCUAGUCGUAUACCGAAAGGUAUACGAUUCCCUUCUAGUGAUGUUAGAAGGGUCGGUAGUCA [Omei KL FMN B Exc B v13]”, for which the “apparent KD of K4 kissing-loop reporter” value is 151 nM (input ligand: FMN 200 uM); 93.4 nM (input ligand: arginine 13.2 mM); 103 nM (input ligand: none); 98.9 nM under setting [1]; 101 nM under setting [2].

“GAAGGUCAAAGACCUUCGUGCACAUCUGAUACCAGUCGCGAAAGCGACCCUUGGCAGCAGGGCAGUGAUGUUGCCAGUGCACAAA [Omei KL Theo A SS A v4]”: the “apparent KD of K4 kissing-loop reporter” value is 255 nM (input ligand: FMN 200 uM); 221 nM (input ligand: arginine 13.2 mM); 273 nM (input ligand: none); 168 nM under setting [1]; 253 nM under setting [2].
